US20050143472A1, “Novel treatment for pathologies associated with oxidative damage” (priority 2002, published 2005)

Assay: Freeze/thaw stability of recombinant mPAO activity
Type: physicochemical
Method: Using the conditions for the steady-state kinetic assay described below, mPAO was determined to be stable at 2-4 mg/mL when frozen at −20° C. or −80° C. and thawed through several cycles. […] Thus, mPAO was stored at −20° C. in the presence of 33% (v/v) ethylene glycol. Ethylene glycol elimination and buffer exchange was accomplished easily by several concentration/dilution cycles using Centricon-10 centrifuge concentrators.

B1: mPAO: recombinant murine peroxisomal polyamine oxidase (SEQ ID NO:4) produced in E. coli (protein, listed as Mus musculus)
chain: MAFPGPRVLVVGSGIAGLGAAQKLCSHRAAPHLRVLEATASAGGRIRSERCFGGVVELGAHWIHGPSQDNPVFQLAAEFGLLGEKELSEENQLVDTGGHVALPSMIWSSSGTSVSLELMTEMARLFYGLIERTREFLNESETPMASVGEFLKKEISQQVASWTEDDEDTRKRKLAILNTFFNIKCCVSGTHSMDLVALAPFGEYTVLPGLDCILAGGYQGLTDRILASLPKDTVAFDKPVKTIHWNGSFQEAAFPGETFPVLVECEDGARLPAHHVIVTVPLGFSKEHQDTFFEPPLPAKKAEAIKKLGFGTNNKIFLEFEEPFWEPDCQFIQVVWEDTSPLQDTALSLQDTWFKKLIGFLVQPSFESSHVLCGFIAGLESEFMETLSDEEVLLSLTQVLRRVTGNPQLPAAKSVLSSRWHSAPYTRGSYSYVAVGSTGDDLDLMAQPLPADGTGTQLQVLFAGEATHRTFYSTTHGALLSGWREADRLIGLWDSQAEQSRPRL
- stability of activity on freezing and thawing (30 μg/mL, several freeze/thaw cycles): activity was lost quickly
- stability of activity on freezing and thawing (2-4 mg/mL, frozen at −20° C. or −80° C., several cycles): stable
- stability of activity on freezing and thawing (33% (v/v) ethylene glycol added, 20 μg/mL to 4 mg/mL): stable for several cycles of freezing and thawing
